Among the data in the supplement of paper PMC12042874 are amyloid nucleation score values, retold here.

± gives the uncertainty stated by the source.

A short description of the data set: amyloid nucleation score (Sup35N fusion, yeast selection) (log enrichment); library NNK1; higher = more nucleation; inactive = no reads after selection. The essentials:
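On medium lacking adenine and uracil, psi-negative yeast expressing peptides of 20 random codons fused to Sup35N were grown 7 days at 30°C after a 24-hour induction with 100 μM copper sulfate. Illumina sequencing of input and output plasmid inserts gave the reads, and sequences under 100 input reads were excluded. The nucleation score is the DiMSum log enrichment of output over input reads, centred on the mode score of non-aggregating sequences.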
For DIVPSTPELFI, the amyloid nucleation score was -0.505 ± 0.59. With EEWFETGCENGCNVEGNRSC, the amyloid nucleation score was -0.117 ± 0.57. For VTNFNESLGKFSRNTLLRS the value was -0.713 ± 1.1; for IIICFRTWLTCSFCFDSAPC, 0.227 ± 0.49; for IHNSVDKTYLCSVLNPRGYS, “inactive”. Regarding GGYIDPLS, the amyloid nucleation score result is “inactive”.

In the case of HNYSDFFNESWHNGLIYSY, the amyloid nucleation score is -0.571 ± 1. In the case of FISVGAFGYTMILNVFN it was 5.445 ± 0.051; in that of MMAIIFMCNV, 3.05 ± 0.18; in that of LKHRRSWYLTYIDCAGM, -0.294 ± 0.43. For NIRKEGFFRFSPSTADTTCR the value was 0.618 ± 0.71. For PTRCQVWLGGTLHVRVVDLS the value was -0.424 ± 0.4. As for NNHFFMILYINKMVYMILKV, the amyloid nucleation score is 0.38 ± 0.52.

With RERSYRSGDYRCYSIMWSAL, the amyloid nucleation score was -0.382 ± 0.23. For RESSAAVDTCTILKMTEKVG the value was -0.131 ± 0.66.

The substance HFVILVLFMMMSSIGMVTRA gave an amyloid nucleation score of 5.16 ± 0.054.

Substance GFVSAKLIPCAVLQKGLLPV gave an amyloid nucleation score of 0.313 ± 0.51.

For SVVRNEIYRYYKCSKTVSIW, the amyloid nucleation score was -0.513 ± 0.33. In turn, CTPVT came in with an amyloid nucleation score of 0.887 ± 1.

With VCITNNELVGVFDDEVFIAF, the amyloid nucleation score entry is “inactive”.

As to VTRTSYWGVFWSHSWRTWM, the amyloid nucleation score entry is “inactive”. AWQRVSVKFELGDIGPEGLY: the amyloid nucleation score was -0.668 ± 0.31. In the case of LILKISMMGK it was “inactive”. Turning to VVGRTEEEHLQHPSWCMCAL, the amyloid nucleation score was 0.128 ± 1. In the case of TLCCLT it was “inactive”; in that of MMSPR, -0.921 ± 2.4. In the case of FWVDCSRVVRLKIQFNLV it was 0.864 ± 0.42; in that of TVYGGLWAFSKTICCVSPKR, 7.228 ± 0.056; in that of HRGVLQLR, 0.764 ± 0.84. In the case of YRVSNVNFSFATFFTHAPVR it was 1.76 ± 0.16. GYGWFLCTIHVQKLVCWPTL: the amyloid nucleation score is -0.114 ± 1.1. In the case of GFDKLVGPCGYGLRRGSLWR it was 0.781 ± 0.52; in that of ESIVRFKSSRSDKI, 2.86 ± 0.075. In the case of VVSYSHAIVRLVLSCDMGRC it was 0.441 ± 0.47; in that of GSCLIRASFQVHMILSSGHL, “inactive”; in that of FNSRAICGEIVNIPHQSPGD, 1.16 ± 0.67.

With YNVIWSMVGEYLHSSCYGPV, the amyloid nucleation score entry is “inactive”. As to YFIPEFSTCVMWRSNNTGKY, the amyloid nucleation score was -0.211 ± 1.2. GSQIWW came in with an amyloid nucleation score of 0.517 ± 0.46. On to VFYFELKG, for which the amyloid nucleation score was -0.183 ± 0.28. AYNDSAVGRAGGLFVVGLFV: the amyloid nucleation score is -0.51 ± 0.58.

FYMGGDCVYNECQGEIRLSL: the amyloid nucleation score was -0.234 ± 0.7.

For NSSHLLVMCDICYNFKVRTL, the amyloid nucleation score is -1.69 ± 1.5. For ASNAARLLPDRISGSEAF the value was 0.591 ± 0.71; for VNAIYDSWLSL, “inactive”; for PTDMPGHVTMSRGSCLEWVL, 0.355 ± 0.36. KVFVSALCC had an amyloid nucleation score of 4.19 ± 0.067. With IYGCTCVDFGLSSNS, the amyloid nucleation score was -0.46 ± 0.84. As to QKSYMCRVGYPF, the amyloid nucleation score turned out to be 0.501 ± 0.72.

In the case of GSKKYQIMSVSELKVQCCGS, the amyloid nucleation score was 0.445 ± 0.34. In the case of DWRMWGF it was -0.865 ± 0.69. As to DNGGFDPWWCWNRLRWWRGG, the amyloid nucleation score was found to be 0.248 ± 0.38.

On to TLLRLFEKPLICYVIGRSLI, for which the amyloid nucleation score was -1.09 ± 0.61. In the case of FHVLG it was -1.35 ± 2.7.

LVMFMNMSLRYNRGLSLVKR: the amyloid nucleation score was -0.252 ± 0.26. With DFYFYKLSLIFKSAFRWFPV, the amyloid nucleation score is -0.359 ± 1.2. Turning to LYGYSI, the amyloid nucleation score stood at 0.778 ± 0.41. Consider CHNVVGSVKRIRSKFMKCFV, for which the amyloid nucleation score entry was “inactive”.

Substance ICNSLMEDDMGASEVMC yielded an amyloid nucleation score of 0.734 ± 0.57. In the case of RCMMQYKFTWGIVTYRKDLG it was 0.658 ± 0.34; in that of IKWTLLDG, 0.871 ± 0.47; in that of ALRNCQNMRPYKTPVRPTVA, 1.34 ± 0.71. For VRQNNGQMFFYWSWFIGNNP, the amyloid nucleation score came to 8.12 ± 0.063. SSKVERG: the amyloid nucleation score was -0.139 ± 1.3. Regarding LSFETRRWMYYIS, the amyloid nucleation score was 0.446 ± 0.24. ICQYPPLEVLARYGQIQDIM: the amyloid nucleation score was determined as 0.207 ± 0.3. For the substance YYTNWQEGYRVGRFRCDGHN, the amyloid nucleation score result is “inactive”. HIFWYCHMFPVVMASIIINS: the amyloid nucleation score turned out to be 0.637 ± 0.59. KTRSNMNFHCS displayed an amyloid nucleation score of 0.195 ± 0.6. For HRCQSSSRRPMNGFGTCQRS the value was 0.321 ± 0.34; for YSLLY, -0.652 ± 0.66; for ESWAITWVGLYGCTLTVIRN, -0.148 ± 0.47. For CGWSSMIVP the value was 0.343 ± 0.63; for IFTTSNQSEGRGVPAGNPNL, “inactive”. In the case of WGIPMVGSRGPMCTKVGFRK it was 0.141 ± 0.35; in that of DNRFERAVWVPHL, 3.78 ± 0.12; in that of CLVERATITHFASCVEAYFY, -0.224 ± 1.4. Take CKTLMLCTRICFDANQLASR: the amyloid nucleation score is 1.71 ± 0.78. In the case of TYPMATIIVALG it was -0.681 ± 0.38; in that of RRATLSHAPGGPMGLEWSRW, 0.444 ± 1.2. LARDYGFD yielded an amyloid nucleation score of 0.051 ± 0.3. Turning to MGEYSRLSARSGWLDTPVDG, the amyloid nucleation score is -0.496 ± 0.67. In the case of KRSKN it was 1.37 ± 0.8; in that of YCKFMLMGNHCFDLFCYSLN, 3.96 ± 0.09. For GELLTLHITGLNEVLVNTSM the value was -0.21 ± 0.31. For TIFIAMDFNRVGKLFYRN the value was 5.368 ± 0.05; for MLFDV, -0.077 ± 0.21. In turn, KASDGLSINRGE showed an amyloid nucleation score of 0.48 ± 0.73. In the case of SWNNNAFAGMIPSNVVCCTY it was 1.97 ± 0.26; in that of HLNLIVTRFASIWVAAFMCR, -0.282 ± 0.77; in that of SIHGGFYTLPE, 1.15 ± 0.51.

As to SSDEFVDGSLIWYHLFSPCR, the amyloid nucleation score is -0.744 ± 0.41. For RMGNLEKCKEPGVVNRWLGI the value was -0.507 ± 0.52; for STCHRSSSTCWKGYVRGLVV, 0.004 ± 0.18; for RRCLSIPLVCFRDKNMNMGF, -0.246 ± 0.46. For TPGVKPYYWIRLTEIVATHS the value was 0.52 ± 1.2; for FSHIELLERAVLMSRVRFLW, -0.514 ± 1.5; for SIRLVLRFLTA, -0.166 ± 0.46.

As for SQLVHERNSVGFEIVWMNHL, the amyloid nucleation score was -0.249 ± 1.7.

As for NSHDKVGVSILWTGRSRLVA, the amyloid nucleation score was -0.003 ± 0.45.

Turning to WHFSMFREWRSS, the amyloid nucleation score was -0.649 ± 0.73. Consider CVLSNRNFNYVAYTYKLQYP, for which the amyloid nucleation score is 1.19 ± 0.32. On to FNYYYLVEWGDGASIRIASI, for which the amyloid nucleation score is -0.473 ± 1.4. On to YGSAVVRQCFG, for which the amyloid nucleation score is -0.114 ± 0.35.
